# According to the RNAGym collection of RNA variant scans (doi:10.1093/molbev/msab373):
# B1: Azoarcus group I ribozyme (parent)
# chain: GUGCCUUGCGCCGGGAAACCACGCAAGGGAUGGUGUCAAAUUCGGCGAAACCUAAGCGCCCGCCCGGGCGUAUGGCAACGCCGAGCCAAGCUUCGGCGCCUGCGCCGAUGAAGGUGUAGAGACUAGACGGCACCCACCUAAGGCAAACGCUAUGGUGAAGGCAUAGUCCAGGGAGUGGCGAAAGUCACACAAACCGG
# Variants of: B1
# Experiment: reverse-splicing fitness (ratio to wild type); higher = more active; in vitro selection; Mg2+ level not given
# Summary of the method: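 An in vitro group I ribozyme library with randomized positions was T7-transcribed and gel-purified. In triplicate, 10 pmol RNA in EPPS pH 7.5 was reacted with 50 pmoles of a 30-nt RNA substrate for 1 h at 37 °C across several added MgCl2 levels (1–48 mM), then stopped with EDTA. Products were reverse transcribed from a substrate-complementary primer, PCR-amplified and sequenced (HiSeq 4000). Fitness is a variant's read proportion after selection over that before, normalised to wild type.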
row,Variant,reverse-splicing fitness
1,GUGCCUUGCGCCGGGAAACCACGCAAGGGAUGGUGUCAAAUUCGGCGAAACCUAAGCGCCCGCCCGGGCGUAUGGCAACGCAGAGCCAAGCUUCGGCGCCUGCGCCGAUGAAGGUGUAGCGACUAGACGGCACCCACCUAAGGCUAACGCUAUGGUGAAGGCAUAGUCAAGGGAGAGGCGAAAGUCACACAAACCGG [C82A A120C A145U C169A U176A],0.0129
2,GUGCCUUGCGCCGGGAAACCACGCAAGGGAUGGUGUCAAAUUCGGCGAAACCUAAGCGCCCGCCCGGGCGUAUGGCAACGCAGAGCCAAGCUUCGGCGCCUGCGCCGAUGAAGGUGUAGCGACUAGACGGCACCCACCUAAGGCUAACGCUAUGGUGAAGGCAUAGUCAAGGGAGCGGCGAAAGUCACACAAACCGG [C82A A120C A145U C169A U176C],0.0124
3,GUGCCUUGCGCCGGGAAACCACGCAAGGGAUGGUGUCAAAUUCGGCGAAACCUAAGCGCCCGCCCGGGCGUAUGGCAACGCAGAGCCAAGCUUCGGCGCCUGCGCCGAUGAAGGUGUAGCGACUAGACGGCACCCACCUAAGGCUAACGCUAUGGUGAAGGCAUAGUCAAGGGAGGGGCGAAAGUCACACAAACCGG [C82A A120C A145U C169A U176G],0.00493
4,GUGCCUUGCGCCGGGAAACCACGCAAGGGAUGGUGUCAAAUUCGGCGAAACCUAAGCGCCCGCCCGGGCGUAUGGCAACGCAGAGCCAAGCUUCGGCGCCUGCGCCGAUGAAGGUGUAGCGACUAGACGGCACCCACCUAAGGCUAACGUUAUGGUGAAGGCAUAGUCCAGGGAGCGGCGAAAGUCACACAAACCGG [C82A A120C A145U C150U U176C],0.0422
5,GUGCCUUGCGCCGGGAAACCACGCAAGGGAUGGUGUCAAAUUCGGCGAAACCUAAGCGCCCGCCCGGGCGUAUGGCAACGCAGAGCCAAGCUUCGGCGCCUGCGCCGAUGAAGGUGUAGCGACUAGACGGCACCCACCUAAGGCUAACGUUAUGGUGAAGGCAUAGUCCAGGGAGAGGCGAAAGUCACACAAACCGG [C82A A120C A145U C150U U176A],0.0269
6,GUGCCUUGCGCCGGGAAACCACGCAAGGGAUGGUGUCAAAUUCGGCGAAACCUAAGCGCCCGCCCGGGCGUAUGGCAACGCAGAGCCAAGCUUCGGCGCCUGCGCCGAUGAAGGUGUAGCGACUAGACGGCACCCACCUAAGGCUAACGUUAUGGUGAAGGCAUAGUCCAGGGAGGGGCGAAAGUCACACAAACCGG [C82A A120C A145U C150U U176G],0.00864
7,GUGCCUUGCGCCGGGAAACCACGCAAGGGAUGGUGUCAAAUUCGGCGAAACCUAAGCGCCCGCCCGGGCGUAUGGCAACGCAGAGCCAAGCUUCGGCGCCUGCGCCGAUGAAGGUGUAGCGACUAGACGGCACCCACCUAAGGCUAACGCUAUGGUGAAGGCAUAGUCUAGGGAGAGGCGAAAGUCACACAAACCGG [C82A A120C A145U C169U U176A],0.0169
8,GUGCCUUGCGCCGGGAAACCACGCAAGGGAUGGUGUCAAAUUCGGCGAAACCUAAGCGCCCGCCCGGGCGUAUGGCAACGCAGAGCCAAGCUUCGGCGCCUGCGCCGAUGAAGGUGUAGCGACUAGACGGCACCCACCUAAGGCUAACGCUAUGGUGAAGGCAUAGUCUAGGGAGGGGCGAAAGUCACACAAACCGG [C82A A120C A145U C169U U176G],0.0041
9,GUGCCUUGCGCCGGGAAACCACGCAAGGGAUGGUGUCAAAUUCGGCGAAACCUAAGCGCCCGCCCGGGCGUAUGGCAACGCAGAGCCAAGCUUCGGCGCCUGCGCCGAUGAAGGUGUAGCGACUAGACGGCACCCACCUAAGGCUAACGCUAUGGUGAAGGCAUAGUCUAGGGAGCGGCGAAAGUCACACAAACCGG [C82A A120C A145U C169U U176C],0.0114
10,GUGCCUUGCGCCGGGAAACCACGCAAGGGAUGGUGUCAAAUUCGGCGAAACCUAAGCGCCCGCCCGGGCGUAUGGCAACGCAGAGCCAAGCUUCGGCGCCUGCGCCGAUGAAGGUGUAGCGACUAGACGGCACCCACCUAAGGCUAACGUUAUGGUGAAGGCAUAGUCGAGGGAGAGGCGAAAGUCACACAAACCGG [C82A A120C A145U C150U C169G U176A],0.0129
11,GUGCCUUGCGCCGGGAAACCACGCAAGGGAUGGUGUCAAAUUCGGCGAAACCUAAGCGCCCGCCCGGGCGUAUGGCAACGCAGAGCCAAGCUUCGGCGCCUGCGCCGAUGAAGGUGUAGCGACUAGACGGCACCCACCUAAGGCUAACGUUAUGGUGAAGGCAUAGUCGAGGGAGCGGCGAAAGUCACACAAACCGG [C82A A120C A145U C150U C169G U176C],0.0198
12,GUGCCUUGCGCCGGGAAACCACGCAAGGGAUGGUGUCAAAUUCGGCGAAACCUAAGCGCCCGCCCGGGCGUAUGGCAACGCAGAGCCAAGCUUCGGCGCCUGCGCCGAUGAAGGUGUAGCGACUAGACGGCACCCACCUAAGGCUAACGUUAUGGUGAAGGCAUAGUCGAGGGAGGGGCGAAAGUCACACAAACCGG [C82A A120C A145U C150U C169G U176G],0.00507
13,GUGCCUUGCGCCGGGAAACCACGCAAGGGAUGGUGUCAAAUUCGGCGAAACCUAAGCGCCCGCCCGGGCGUAUGGCAACGCAGAGCCAAGCUUCGGCGCCUGCGCCGAUGAAGGUGUAGCGACUAGACGGCACCCACCUAAGGCUAACGGUAUGGUGAAGGCAUAGUCCAGGGAGCGGCGAAAGUCACACAAACCGG [C82A A120C A145U C150G U176C],0.0141
14,GUGCCUUGCGCCGGGAAACCACGCAAGGGAUGGUGUCAAAUUCGGCGAAACCUAAGCGCCCGCCCGGGCGUAUGGCAACGCAGAGCCAAGCUUCGGCGCCUGCGCCGAUGAAGGUGUAGCGACUAGACGGCACCCACCUAAGGCUAACGGUAUGGUGAAGGCAUAGUCCAGGGAGGGGCGAAAGUCACACAAACCGG [C82A A120C A145U C150G U176G],0.00376
15,GUGCCUUGCGCCGGGAAACCACGCAAGGGAUGGUGUCAAAUUCGGCGAAACCUAAGCGCCCGCCCGGGCGUAUGGCAACGCAGAGCCAAGCUUCGGCGCCUGCGCCGAUGAAGGUGUAGCGACUAGACGGCACCCACCUAAGGCUAACGCUAUGGUGAAGGCAUAGUCGAGGGAGAGGCGAAAGUCACACAAACCGG [C82A A120C A145U C169G U176A],0.0152
